In publication PMC3879576:

What was measured:
[1] = target: Bet v 1a Y5C mutant (birch) (UniProt P15494); assay: SEC; Superdex 75 size exclusion chromatography (gel filtration) separating monomeric and dimeric forms
[2] = target: Bet v 1a Y5C mutant (birch) (UniProt P15494); assay: not stated; analysis of purified Bet v 1a Y5C; method of the analysis not named; similar redox sensitivity as the dimer of the WT preparation
[3] = target: dimeric Bet v 1a purified from the WT Bet v 1a preparation, with cysteine incorporated at position 5 instead of the encoded tyrosine (birch) (UniProt P15494); assay: SEC; Superdex 75 size exclusion chromatography (gel filtration) separating monomeric and dimeric forms

| stoichiometry N [1] | percent dimerization [2] | stoichiometry N [3] | Substance |
| --- | --- | --- | --- |
| 2 | 90% |  | Bet v 1a Y5C mutant (from UniProt P15494 1-160) (natural protein) |
|  |  | 2 | dimeric Bet v 1a purified from the WT Bet v 1a preparation, with cysteine incorporated at position 5 instead of the encoded tyrosine (from UniProt P15494 1-160) (natural protein) |
